Read-outs that look alike come from different tables or passages of the source.
What was measured:
[1] = Distribution coefficient (LogD7.4), shake-flask method; format: physicochemical; conditions: n-octanol/PBS pH 7.4, n = 3; read-out: Log D7.4
Description: Distribution coefficients (LogD7.4) for the ^111In-labeled compounds were determined by a shake-flask method. The experiments were performed in triplicate for each radioligand. A sample containing the radioligand (0.5–2.0 MBq) was dissolved in 1 mL solution of phosphate-buffered saline (0.01 M, pH 7.4) and n-octanol (v:v = 1:1). The vials were vortexed vigorously and then centrifuged at 10,000 rpm for 3 min, for phase separation. Samples (10 μL) of each phase were taken out and analyzed using a gamma counter. LogD7.4 values were calculated, using the following equation: LogD7.4 = log {(counts in n-octanol phase)/(counts in PBS phase)}.

[2] = Stability in PBS at 37 °C (iTLC); format: physicochemical; conditions: intact labeled ligand after incubation at 37 °C in PBS, n = 1
Description: Stability in PBS was determined by incubating 20 µL of the labeled compounds (∼11 MBq) in PBS (80 µL) at 37 °C. Radiochemical purity was determined by iTLC at 30 min, 1 h, 2 h and 4 h. Stability in the serum was carried out by adding 70 µL of the labeled compound (∼35 MBq) to 330 µL of mouse serum (Merck, Haarlerbergweg, The Netherlands). The mixture was incubated at 37 °C. At different time points (30 min, 1 h, 2 h and 4 h), an aliquot of the mixture (50 µL) was added to 50 µL ACN. The vial was vortexed and centrifuged at 10,000 rpm for 20 min and the supernatant was analyzed by iTLC.

[3] = tested on: PC-3-xenograft Balb/c nu/nu mice; assay: Ex vivo biodistribution after SPECT/CT scanning; format: in vivo, mouse; conditions: radioactivity, ~3 h p.i.
Description: (§1) Seven-week-old male Balb/c nu/nu-specific and opportunistic pathogen-free (SOPF) mice (Janvier Labs, Le Genest-Saint-Isle, France) were housed in individually ventilated cages, with 4 mice per cage. Upon arrival, mice were acclimated for 1 week, with access to food and water ad libitum. Mice were subcutaneously inoculated on the right shoulder with PC-3 cells (5 × 10^6 cells suspended in 100 µL of 1/3 Matrigel (Corning Inc., Corning, NY, USA) and 2/3 Hank’s balanced salt solution (Gibco). PC-3 xenografts were allowed to grow for 3 weeks. Tumor sizes were 391 ± 173 mm^3 at the start of the studies. All animal experiments were approved by the Animal Welfare Committee of the Erasmus MC and were conducted in agreement with institutional guidelines (license number: AVD101002017867, 28 September 2017).
To determine the biodistribution of the compounds after imaging (~3 h p.i.), blood was collected via cardiac puncture under isoflurane/O2 anesthesia, after which the mice were sacrificed. The tumor and organs of interest (prostate, pancreas, spleen, liver, GI tract (stomach, small intestine, cecum, large intestine), kidneys, lungs, heart, muscle, bone, and brain) were excised, washed in PBS and blotted dry. The stomach, intestines and cecum were emptied of their contents. The tumor was cut in half; one half was fresh-frozen for further analysis and the other half was collected for ex vivo optical imaging and radioactivity measurements. After imaging, the blood, tumor, and relevant organs were weighed and measured in a γ-counter. To determine the total injected radioactivity per animal, samples of the injected solutions were measured as well. The percentage of injected dose per gram (%ID/g) was determined for each tissue sample and corrected for both the injected volume and %ID present at the injection site (the tail). Because the low weight of the prostate limited accurate organ weight measurements, the average prostate weight of all animals was used.

[4] = Ex vivo optical (fluorescence, IVIS) imaging of organs; format: in vivo, mouse; conditions: male, Balb/c nu/nu, mouse, iv, ex vivo radiant efficiency
Description: as §1
(§2) Before gamma counter measurements, the tumor half, pancreas, kidneys, lungs, small intestine, large intestine, liver, muscle, and bone were placed in two petri dishes and ex vivo optical imaging was performed with the IVIS Spectrum system (Perkin Elmer, Waltham, MA, USA) using the following settings for all measurements: FOV 12.6 cm, medium binning, f2, 0.5 s exposure with an excitation/emission filter of 640 nm/680 nm. Living Image version 4.5.2 software (Perkin Elmer) was used to perform data analysis by drawing a region of interest around the organ/tissue to quantify the radiant efficiency {(photons/second/cm^2/steradian)/(μW/cm^2)}.

[5] = tested on: PC-3-xenograft Balb/c nu/nu mice; assay: as above; format: in vivo, mouse; conditions: ex vivo after dissection, ex/em 640/680 nm
Description: as §1, §2

[6] = blocked with 150 nmol unlabeled NeoB, n = 1
[7] = non-blocked, n = 3, listed as [111In]In‐12

Compound: CC(C)CC(CC(C)C)NC(=O)[C@H](Cc1c[nH]cn1)NC(=O)CNC(=O)[C@@H](NC(=O)[C@H](C)NC(=O)[C@H](Cc1c[nH]c2ccccc12)NC(=O)[C@H](CCC(N)=O)NC(=O)[C@@H](Cc1ccccc1)NC(=O)COCC(=O)Nc1ccc(CNC(=O)[C@H](CCCCNC(=O)CCOCCOCCOCCOCCNC(=O)OC2CCCC3C=NN=C(c4ccc(CNC(=O)CCCCC[N+]5=C(/C=C/C=C/C=C6N(C)c7ccc(S(=O)(=O)O)cc7C6(C)C)C(C)(C)c6cc(S(=O)(=O)[O-])ccc65)cc4)C3CC2)NC(=O)CN2CCN(CC(=O)O)CCN(CC(=O)O)CCN(CC(=O)O)CC2)cc1)C(C)C (stereo partly shown) [[^111In]In-12, metal not drawn]
- logD [1]: -1.66 ± 0.01
- Stability in PBS (%) 30 min ([2]; 30 min): 85.8%
- Stability in PBS (%) 1 h ([2]; 1 h): 80.1%
- Stability in PBS (%) 2 h ([2]; 2 h): 75.0%
- Stability in PBS (%) 4 h ([2]; 4 h): 73.1%
- Tumor-to-blood ratio [3, 6]: 0.37
- Tumor-to-prostate ratio [3, 6]: 0.62
- Tumor-to-prostate ratio ([3]; non-blocked, n = 3): 2.86 ± 1.58
- tissue to tissue ratio ([4]; tumor and kidney, blocked with 150 nmol unlabeled NeoB, n = 1, read-out: Tumor-to-kidney ratio (fluorescence)): 0.31
- tissue to tissue ratio ([4]; tumor and kidney, non-blocked, n = 3, read-out: Tumor-to-kidney ratio (fluorescence)): 0.47 ± 0.16
- tissue to tissue ratio ([4]; tumor and liver, blocked with 150 nmol unlabeled NeoB, n = 1, read-out: Tumor-to-liver ratio (fluorescence)): 0.69
- tissue to tissue ratio ([4]; tumor and liver, non-blocked, n = 3, read-out: Tumor-to-liver ratio (fluorescence)): 1.96 ± 0.47
- tissue to tissue ratio ([4]; tumor and muscle, blocked with 150 nmol unlabeled NeoB, n = 1, read-out: Tumor-to-muscle ratio (fluorescence)): 2.21
- tissue to tissue ratio ([4]; tumor and muscle, non-blocked, n = 3, read-out: Tumor-to-muscle ratio (fluorescence)): 5.69 ± 1.94
- tissue to tissue ratio ([4]; tumor and pancreas, blocked with 150 nmol unlabeled NeoB, n = 1, read-out: Tumor-to-pancreas ratio (fluorescence)): 2.54
- tissue to tissue ratio ([4]; tumor and pancreas, non-blocked, n = 3, read-out: Tumor-to-pancreas ratio (fluorescence)): 0.69 ± 0.22
- Fluorescent signal, bone (average radiant efficiency) [5, 6]: 0.32 × 10^8 p/sec/cm^2/sr per µW/cm
- Fluorescent signal, kidneys (average radiant efficiency) [5, 6]: 5.42 × 10^8 p/sec/cm^2/sr per µW/cm
- Fluorescent signal, large intestine (average radiant efficiency) [5, 6]: 0.47 × 10^8 p/sec/cm^2/sr per µW/cm
- Fluorescent signal, liver (average radiant efficiency) [5, 6]: 2.42 × 10^8 p/sec/cm^2/sr per µW/cm
- Fluorescent signal, lungs (average radiant efficiency) [5, 6]: 2.88 × 10^8 p/sec/cm^2/sr per µW/cm
- Fluorescent signal, muscle (average radiant efficiency) [5, 6]: 0.76 × 10^8 p/sec/cm^2/sr per µW/cm
- Fluorescent signal, pancreas (average radiant efficiency) [5, 6]: 0.66 × 10^8 p/sec/cm^2/sr per µW/cm
- Fluorescent signal, small intestine (average radiant efficiency) [5, 6]: 0.44 × 10^8 p/sec/cm^2/sr per µW/cm
- Fluorescent signal, tumor (average radiant efficiency) [5, 6]: 1.67 × 10^8 p/sec/cm^2/sr per µW/cm
- Fluorescent signal, bone (average radiant efficiency) ([5]; non-blocked, n = 3): 0.40 ± 0.11 × 10^8 p/sec/cm^2/sr per µW/cm
- Fluorescent signal, kidneys (average radiant efficiency) ([5]; non-blocked, n = 3): 9.41 ± 0.92 × 10^8 p/sec/cm^2/sr per µW/cm^2
- Fluorescent signal, large intestine (average radiant efficiency) ([5]; non-blocked, n = 3): 0.68 ± 0.19 × 10^8 p/sec/cm^2/sr per µW/cm
- Fluorescent signal, liver (average radiant efficiency) ([5]; non-blocked, n = 3): 2.20 ± 0.09 × 10^8 p/sec/cm^2/sr per µW/cm
- Fluorescent signal, lungs (average radiant efficiency) ([5]; non-blocked, n = 3): 1.93 ± 0.18 × 10^8 p/sec/cm^2/sr per µW/cm
- Fluorescent signal, muscle (average radiant efficiency) ([5]; non-blocked, n = 3): 0.78 ± 0.08 × 10^8 p/sec/cm^2/sr per µW/cm
- Fluorescent signal, pancreas (average radiant efficiency) ([5]; non-blocked, n = 3): 6.32 ± 0.50 × 10^8 p/sec/cm^2/sr per µW/cm^2
- Fluorescent signal, small intestine (average radiant efficiency) ([5]; non-blocked, n = 3): 0.85 ± 0.30 × 10^8 p/sec/cm^2/sr per µW/cm
- Fluorescent signal, tumor (average radiant efficiency) ([5]; non-blocked, n = 3): 4.31 ± 1.03 × 10^8 p/sec/cm^2/sr per µW/cm^2
- Fluorescent signal, kidneys (average radiant efficiency) [5, 7]: 9.41 ± 0.92 × 10^8 p/sec/cm^2/sr per µW/cm
- Fluorescent signal, pancreas (average radiant efficiency) [5, 7]: 6.32 ± 0.50 × 10^8 p/sec/cm^2/sr per µW/cm
- Fluorescent signal, tumor (average radiant efficiency) [5, 7]: 4.31 ± 1.03 × 10^8 p/sec/cm^2/sr per µW/cm

Source: PMC8778164, “Towards Complete Tumor Resection: Novel Dual-Modality Probes for Improved Image-Guided Surgery of GRPR-Expressing Prostate Cancer” (Pharmaceutics, 2022)
